The supplement of paper PMC11865577

System: TO-3-N3 (biotin conjugate)
Assay: pull-down binding Z-score (relative to library population); higher = stronger binding
Conditions: RNA library: Library-2
How it was run: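 Cy5- or Cy3-end-labelled RNA library (1 μg) was heat-folded in phosphate/NaCl/KCl buffer and incubated 60 min at 25 °C with streptavidin beads carrying 100 pmol biotin-conjugated small molecule. After three washes, bound RNA was eluted in hot SDS and hybridised 20 h at 55.5 °C to a DNA barcode microarray. Binding was scored by subtracting a beads-only control, averaging barcoded replicate probes after dropping highest and lowest, and converting to a Z-score against library mean and standard deviation.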

Row | Sequence | pull-down binding Z-score
1 | GGUUCACUAUAUGUUAAACCAGGUGGAACC | 0.612
2 | GGUUCGUGUCUUUAGCUAUAGAUGCUUACC | 0.877
3 | GGUUGGGAAAUUGUUAAAUUUAUCUCAACC | -0.472
4 | GGUUGGGAGAAGAGCAACAGCC [IAV_invivo_PB2_1_Motif_16+IAV_invivo_PB2_1_Motif_16] | 0.351
5 | GGUUGUAUGGUACAAGUAACUUGUGGUACAACU | -0.51
6 | GGUUUAACUUCUAUUAAAUGGGCAGAUAACAACUGUUAUCUUGCCACUGCAUUGUUAACACUCCAACAAAUAGAGUUGAAGUUUAAUCC | -0.726
7 | GGUUUAGCUGCUGUUAAUAGUGUCCCUUGGGAUACUAUAGCUAAUUAUGCUAAGCC | 0.621
8 | GGUUUAUACCUUCCCAGGUAACAAACC | -0.697
9 | GGUUUGUUACAGACACACC [SHAPE_invivo_SARS-CoV-2_Motif_243] | -0.427
10 | GGUUUGUUGCC [IAV_invivo_PB1_2_Motif_26+IAV_invivo_PB1_2_Motif_26] | 0.00909
11 | GGUUUUAUAGCUGGCUUGAUUGCCAUAGUAAUGGUGACAAUUAUGCUUUGCUGUAUGACC | -0.96
12 | GUAAAUUUACUUAC [DMSMaPseq_invitro_SARS-CoV-2_Motif_170] | 0.655
13 | GUAAGAGAAUUCCUUAC | -0.366
14 | GUAAUGAUCCAUUUUUGGGUGUUUAUUAC [DMSMaPseq_invitro_SARS-CoV-2_Motif_387] | -0.1
15 | GUACAUACAGCUAAUAAAUGGGAUCUCAUUAUUAGUGAUAUGUAC | -0.823
16 | GUACAUGGGCACACUUUCUUAUGAACAAUUUAAGAAAGGUGUUCAGAUAC [DMSMaPseq_invitro_SARS-CoV-2_Motif_106] | -0.377
17 | GUACAUGGGCACACUUUCUUAUGAACAAUUUAAGAAAGGUGUUCAGAUACCUUGUAC [SHAPE_invitro_SARS-CoV-2_Motif_110] | -0.767
18 | GUACCAAAGGUGC [IAV_invivo_PB1_2_Motif_35+IAV_invivo_PB1_2_Motif_35] | -0.101
19 | GUACCUCAAGCUGAUGUAGAAUGGAAGUUCUAUGAUGCACAGCCUUGUAGUGAC [SHAPE_invitro_SARS-CoV-2_Motif_348] | -0.418
20 | GUACGAUCGAGUGUAC [DMSMaPseq_invitro_SARS-CoV-2_Motif_538] | 0.143
21 | GUACUUAAUGAGAAGUGC [SHAPE_invivo_SARS-CoV-2_Motif_56] | -0.216
22 | GUACUUGGUAGUUUAGCUGCCACAGUAC | -0.525
23 | GUAGACAAUUCUAGUCUUAC [SHAPE_invitro_SARS-CoV-2_Motif_131] | 0.702

Row | Sequence | pull-down binding Z-score
24 | GUAGAGGAGGCAAAGACAGUGCUUAAAAAGUGUAAAAGUGCCUUUUAC | -0.449
25 | GUAUCUGAAUUAC | 0.0447
26 | GUAUGAGCAGUAUAU [DMSMaPseq_invitro_SARS-CoV-2_Motif_451] | -0.638
27 | GUCAAAGUGAC [SHAPE_invivo_SARS-CoV-2_Motif_385] | -0.196
28 | GUCAAAGUGACUAUUGAC [SHAPE_invitro_SARS-CoV-2_Motif_373] | -0.385
29 | GUCACACCUUCGGGAACGUGGUUGAC | -0.558
30 | GUCAGUGAAACACAGGGAACAGAGAAACUGAC [IAV_invivo_PB2_1_Motif_24+IAV_invivo_PB2_1_Motif_24] | -0.496
31 | GUCCUAAAGUGAAGUAUUUAUACUUUAUUAAAGGAU [SHAPE_invivo_SARS-CoV-2_Motif_244] | -0.854
32 | GUCCUAUUACGGAU | -0.9
33 | GUCGCUACAGGAUUGGCAACUAUAAAUUAAACACAGACCAUUCCAGUAGCAGUGAC [SHAPE_invitro_SARS-CoV-2_Motif_494] | 0.00722
34 | GUCGUUGACAGGACACGAGUAACUCGUCUAUCUUCUGCAGGCUGC [SARS-CoV-2-Conserved-Structured-34_Interval-80-197_Motif_3] | -0.455
35 | GUCUAAUCUCAAACCUUUUGAGAGAGAU | -0.801
36 | GUCUAGCUGUCCACGAGUGCUUUGUUAAGCGUGUUGACUGGAC | -0.128
37 | GUCUCCUACUAAAUUAAAUGAUCUCUGCUUUACUAAUGUCUAUGCAGAUUCAUUUGUAAUUAGAGGUGAU | -0.707
38 | GUCUCGCACCCGCGAGAU [IAV_invivo_PB2_1_Motif_2+IAV_invivo_PB2_1_Motif_2] | 0.583
39 | GUCUCUAUAGAAAUAGAGAU | 0.213
40 | GUCUCUGAAGAAGUAGUGGAAAAUCCUACCAUACAGAAAGAC | -0.0809
41 | GUCUGAUAAUGGACCCCAAAAUCAGCGAAAUGCACCCCGCAUUACGUUUGGUGGACCCUCAGAU | -0.49
42 | GUCUGGGAUCAACGAGUCAGCGGAC [IAV_invivo_PB1_2_Motif_28+IAV_invivo_PB1_2_Motif_28] | -0.28
43 | GUCUGGUAGUCGGAC [IAV_invivo_NA_6_Motif_1+IAV_invivo_NA_6_Motif_1] | -0.00665
44 | GUCUUACACCGUGCGGCACAGGCACUAGUACUGAUGUCGUAUACAGGGCUUUUGAC [DMSMaPseq_invitro_SARS-CoV-2_Motif_242] | -0.0912
45 | GUCUUUCCAGGGGC [IAV_invivo_NP_5_Motif_23+IAV_invivo_NP_5_Motif_23] | -0.313
46 | GUGAAACAUUUGUCAC [SHAPE_invivo_SARS-CoV-2_Motif_46] | 0.818

Row | Sequence | pull-down binding Z-score
47 | GUGAAGAAUCAU | 0.637
48 | GUGAAUUCAACAU [DMSMaPseq_invitro_SARS-CoV-2_Motif_308] | -0.238
49 | GUGAGAGAGAGCCGGAACCCAGGGAAUGCUGAGUUCGAAGAUCUCAC [IAV_invivo_NP_5_Motif_14+IAV_invivo_NP_5_Motif_14] | 0.351
50 | GUGAUAGAGCCAUGCCUAACAUGCUUAGAAUUAUGGCCUCAC | 0.323
51 | GUGAUGAACUGAAGAUUAAUGCGGCUUGUAGAAAGGUUCAACACAUGGUUGUUAAAGCUGCAUUAUUAGCAGACAAAUUCCCAGUUCUUCAC | -0.0396
52 | GUGCACUUGACCCUCUCUCAGAAACAAAGUGUAC [SHAPE_invivo_SARS-CoV-2_Motif_422] | 0.278
53 | GUGCAGAAUGAAUUCUCGUAACUACAUAGCACAAGUAGAUGUAGUUAACUUUAAUCUCAC | -0.768
54 | GUGCCACUCCAUGGCAC | 0.641
55 | GUGCCAGCACAAAAUGCUAUAAGCAC [IAV_invivo_PB1_2_Motif_3+IAV_invivo_PB1_2_Motif_3] | -0.871
56 | GUGCCAUCAAAUUGGAUGACAAAGAUCCAAAUUUCAAAGAUCAAGUCAUUUUGCUGAAUAAGCAUAUUGACGCAU | -0.675
57 | GUGCCCAAAAUACGUCAGGAGUGC [IAV_invivo_HA_4_Motif_13+IAV_invivo_HA_4_Motif_13] | -0.325
58 | GUGCCUGGAAUAUUGGUGAACAGAAAUCAAUACUGAGUCCUCUUUAUGCAUUUGCAUCAGAGGCUGCUCGUGUUGUACGAUCAAUUUUCUCCCGCAC [SHAPE_invivo_SARS-CoV-2_Motif_37] | -0.254
59 | GUGCGGCACAGGCACUAGUACUGAUGUCGUAU [SHAPE_invitro_SARS-CoV-2_Motif_246] | 0.297
60 | GUGCGUAUAAAGAUUGUACAAAUGUUAAGUGACACACUUAAAAAUCUCUCUGACAGAGUCGUAUUUGUCUUAUGGGCAC [DMSMaPseq_invitro_SARS-CoV-2_Multi_54_ComplexLevel_1] | -1.04
61 | GUGCUAAGCAC | -0.151
62 | GUGCUAAUGACCCUGUGGGUUUUACAC [SHAPE_invivo_SARS-CoV-2_Motif_252] | 0.178
63 | GUGCUUGGGACAUUUGAUACCGCAC [IAV_invivo_PB2_1_Motif_30+IAV_invivo_PB2_1_Motif_30] | -0.258
64 | GUGGAUGGUUAUGUUCAC | 0.0943
65 | GUGGCACUGAGAAUUUGACUAAAGAAGGUGCCAC | 0.452
66 | GUGGCCCUGAUGGCUAC | -0.362
67 | GUGGCUAAAUCUGAAUUUGACCGUGAUGCAGCCAU [DMSMaPseq_invitro_SARS-CoV-2_Motif_214] | -0.576
68 | GUGGGGUAUUCAUCACCCGC [IAV_invivo_HA_4_Motif_9+IAV_invivo_HA_4_Motif_9] | 1.69
69 | GUGGUAGUUAUACUAAUGACAAAGCUUGCCCAUUGAUUGCUGC [DMSMaPseq_invitro_SARS-CoV-2_Motif_161] | 0.409
